This experiment deals with whole blood. Description: Varying concentrations assay of hemostatic agent in the microfluidic hemostasis device (coagulation time at the vascular injury site). The experiment is classed as cell-based. From the text:
Biomolecules such as tissue factor (TF) can be used as a surrogate for hemostatic agents. TF is the primary cellular initiator of blood coagulation via the extrinsic pathway. After vessel injury, the TF:VIIa complex activates the coagulation protease cascade, which leads to fibrin deposition and activation of platelets (see FIGS. 7-8). TF expression by nonvascular cells plays an essential role in hemostasis by activating blood coagulation. In contrast, TF expression by vascular cells induces intravascular thrombosis. […] TF can be allowed to adhere to the surface of the channels by incubating at 37° C. and 5% CO2. Saline wash can be initiated to wash off any residual TF.
In order to mimic these conditions observed, TNF-α at a concentration of 10 μg/ml can be injected near the wound site of the tissue channel (e.g., outer channel) from the top inlet of the device. It should be noted that endothelial cells cultured in the vascular channel (e.g., central channel) can grow near the wound site opening, and also into the tissue area. Injection of TNF-α can activate the endothelial cells adjacent to the injection site to start expressing TF. At about 8 hour after activation, hemostasis restoration experiments can be initiated.
Whole blood can be kept anticoagulated using corn trypsin inhibitor (CTI). […] The time taken to completely repair (block) the opening can be recorded (FIG. 8). […]

B1: Tissue factor: primary cellular initiator of blood coagulation via the extrinsic pathway, used as a surrogate for hemostatic agents (protein, UniProt P13726 33-295, looked up)
Tissue factor: SGTTNTVAAYNLTWKSTNFKTILEWEPKPVNQVYTVQISTKSGDWKSKCFYTTDTECDLTDEIVKDVKQTYLARVFSYPAGNVESTGSAGEPLYENSPEFTPYLETNLGQPTIQSFEQVGTKVNVTVEDERTLVRRNNTFLSLRDVFGKDLIYTLYYWKSSSSGKKTAKTNTNEFLIDVDKGENYCFSVQAVIPSRTVNRKSTDSPVECMGQEKGEFREIFYIIGAVVFVVIILVIILAISLHKCRKAGVGQSWKENSPLNVS
With B1, the “time to coagulate (coagulation time of the whole blood at the vascular injury site)” value (Tissue factor at higher concentration of 10 μg/ml (extreme dose scenario)) is “less than 5 minutes” and the “time to coagulate (coagulation time of the whole blood at the vascular injury site)” value (Tissue factor coated at 10 ng/ml in the tissue channel) is not below 5 min.
